In the supplement of paper PMC10567573:

B1: TMEM106C (parent)
chain: SEQLVNFTGKAEMGGPFSYVYFFC

Variants of: B1
Assay: protein stability index of a GFP-peptide fusion (GPS, HEK-293T) (PSI 1-6); higher = more stable
Conditions: c terminus: a fixed tail appended
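Further: lentivirally expressed fusions sorted by FACS into six bins by GFP to DsRed ratio, PSI derived from sequencing read proportions per bin multiplied by bin number.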

Protein stability index, by site and new letter:
P16: W 2.94, M 3.03, K 2.98, Q 2.58, F 3.14, L 3.79, C 3.95, R 3.05, D 3.16, Y 3.76, A 2.25, G 2.05, V 2.47, H 2.25, E 2.88, I 2.04, N 3.26, T 2.4, S 2.1
N6: C 3.24, I 2.71, M 3.44, L 1.38, Y 2.19, F 2.56, V 2.18, R 2.31, H 1.97, A 2.28, D 2.88, K 2.82, G 3.12, Q 2.39, S 2.52, T 2.97, W 2.96, P 1.58, E 3.28
S18: A 2.29, Q 2.45, T 2.31, C 2.74, V 4.08, H 2.35, E 2.23, N 3, R 3.37, W 1.72, P 2.26, G 1.88, M 4.17, F 3.04, L 3.3, K 2.25, I 3.11, Y 2.04
L4: W 2.2, C 1.94, A 2.54, I 2.74, D 2.39, N 3.12, Q 1.93, S 2.11, Y 3.31, P 2.07, T 3.41, E 2.62, F 2.75, H 4.32, K 3.49
Y19: C 2.1, F 2.11, W 2.46, I 2.51, R 2.1, T 2.33, M 3.35, K 3.22, H 3.66, V 3.9, A 2, Q 2.12, E 1.93, P 1.74, N 1.97, L 2.89, D 1.91, G 2.97
M13: A 2.1, F 2.15, K 2.34, G 2.77, C 2.52, P 2.52, R 2.54, D 3.13, L 2.2, E 1.54, Y 3.13, H 2.64, N 2.69, V 3.14, Q 2.02, T 2.27, I 3.54, S 2.16, W 2.15
Q3: K 2.79, Y 2.99, R 2.4, N 3.22, F 2.76, L 3.56, M 2.52, C 2.98, I 2.94, T 2.79, V 3.16, G 3.44, W 3.02, H 3.21, A 1.85, E 2.57, S 2.73, D 3.39
E2: W 2.95, Y 2
F17: T 2.41, G 2.28, C 2.79, M 3.54, A 2.55, D 1.95, R 3.07, S 2.5, L 3.08, W 3.31, P 1.84, E 1.97, V 2.46, Q 2.77, N 2.93, K 2.42, Y 2.21, H 2.22, I 2.47
G14: L 3, C 3.15, V 3.73, A 3.63, S 3.33, I 3.83, E 2.86, K 2.59, Q 2.52, Y 3.75, H 2.88, D 3.46, N 2.23, W 3.4, P 3.48, T 3.09, F 3.25, M 2.79, R 2.42
T8: F 1.62, L 4.14, Y 3.78, A 3.06, C 3.08, W 2.44, K 2.4, M 2.02, G 2.76, Q 3.6, P 2.54, S 2.29, N 2.63, H 3.31, E 2.29, V 2.92, I 3.12, R 2.65
G9: C 2.05, P 2.28, A 3.2, N 3.19, W 2.95, T 3.27, V 3.09, S 2.97, M 2.47, F 2.01, R 3.01, L 2.21, Q 2.71, K 2.89, I 2.8, H 3.07, Y 3.05, D 2.19, E 2.46
A11: F 3.61, C 2, M 2.61, I 2.16, D 2.64, P 4.32, Y 2.47, G 2.41, H 2.39, R 2.14, E 3.33, W 2.75, V 3.08, S 2.17, Q 3.25, K 3.7, T 3.55, N 2.66, L 2.92
E12: L 2.07, I 2.98, A 1.37, C 2.67, W 3.46, Y 3.17, N 2.69, R 3.52, H 3.66, D 2.46, G 2.96, K 4.11, T 2.51, F 2.67, P 3.12, S 2.79, M 3.74, V 2.79, Q 4.32
F7: L 3.36, D 2.32, K 2.69, M 1.98, P 3.16, W 2.51, C 3.4, S 2.03, N 2.37, E 4.73, V 2.45, Y 3.39, I 2.32, T 3.16, R 2.32, G 1.68, Q 1.74, H 2.79
V20: H 2.53, K 1.55, E 2.13, R 1.68, D 1.76, T 2.77, S 2.56, F 2.17, L 2.07, C 3.09, I 2.7, W 1.79, Q 2.65, N 2.69, P 1.98, A 2.9, M 2.65, G 2.35
K10: V 3.02, P 2.32, Y 2.5, E 2.94, F 2.92, G 4.37, D 2.33, C 2.55, S 3.56, R 2.99, A 2.02, W 3.18, I 3.15, L 1.94, N 2.25, H 2.51, M 2.72, Q 3.07, T 3.48
G15: A 2.8, T 2.73, I 3.9, V 2.76, S 2.85, M 3.83, H 3.96, Q 2.59, F 3.12, W 2.36, K 2.63, R 2.79, Y 2.89, N 2.23, P 4.29, C 2.89, L 2.52, D 2.33, E 3.6
V5: C 2.67, S 2.45, R 2.8, H 2.52, Q 2.89, D 3.94, F 2.76, I 3.42, K 3.06, G 1.26, Y 3.6, M 2.83, A 2.95, T 1.81, P 4.22, W 4.3, N 2.58, E 1.79, L 3.05
